According to patent US10208288B2, “Differentiation of human embryonic stem cells into pancreatic endocrine cells” (Janssen Biotech, Inc., priority 2012, dated 2019):

Test system: cells of the human embryonic stem cell line H1 differentiated to stage 5
Assay: Immunostaining for insulin protein expression at the end of Stage 5
Type: cell-based
Conditions: 50 or 100 ng/ml for three days at stage 5, immunostaining vs control; FIG. 2, FIG. 3
Procedure: Cells of the human embryonic stem cell line H1 (hESC H1, passage 40) were seeded as single cells at 1×10^5 cells/cm^2 on MATRIGEL™ (1:30 dilution; BD Biosciences, NJ)-coated dishes in mTeSR®1 media supplemented with 10 μM of Y27632. Forty-eight hours post seeding, cultures were washed in incomplete PBS (phosphate buffered saline without Mg or Ca). Cultures were differentiated into pancreatic endoderm/endocrine lineages as follows: • a) Stage 1 (Definitive Endoderm (DE)—3 days): Cells were cultured for one day in stage 1 media (see Example 1, above). Cells were then cultured for an additional day in MCDB-131 medium supplemented with 0.1% fatty acid-free BSA, 0.0012 g/ml sodium bicarbonate, 1× GlutaMax™, 4.5 mM D-Glucose, 100 ng/ml GDF8, and 0.1 μM MCX compound. […]

B1: Ephrin-A4: Ephrin ligand protein, R & D Systems catalogue number 369-EA (protein, UniProt P52798 26-170, looked up)
Ephrin-A4: LRHVVYWNSSNPRLLRGDAVVELGLNDYLDIVCPHYEGPGPPEGPETFALYMVDWPGYESCQAEGPRAYKRWVCSLPFGHVQFSEKIQRFTPFSLGFEFLPGETYYYISVPTPESSGQCLRLQVSVCCKERKSESAHPVGSPGES
protein expression of insulin: significantly enhanced
